Measured values: US20180037641A1

Experiments:
[1] = target: P301S human tau, T34 isoform (1N4R), of P301S tg mice (line PS19) (human) (UniProt P10636); test: cell-based or functional assay
RD(LM)-HA = RD(LM)-HA (UniProt P10636); test: cell-based or functional assay
RD(LM)-YFP = RD(LM)-YFP (UniProt P10636); test: cell-based or functional assay
[2] = target: tau RD aggregates passing between HEK293 cells in the propagation assay (RD(LM) and RD(ΔK) constructs); test: cell-based or functional assay
[3] = target: recombinant human tau, longest isoform hTau40 (441 aa) (human) (UniProt P10636); test: SPR (Biacore), tau immobilised on CM-5 chip, antibody injected 0.78-400 nM
[4] = target: recombinant mouse tau, longest isoform mTau40 (432 aa) (mouse) (UniProt P10637); test: as above
Chain of recombinant mouse tau, longest isoform mTau40 (432 aa) (mouse) (P10637 other isoform, or with tags, fused parts or gaps limits assumed): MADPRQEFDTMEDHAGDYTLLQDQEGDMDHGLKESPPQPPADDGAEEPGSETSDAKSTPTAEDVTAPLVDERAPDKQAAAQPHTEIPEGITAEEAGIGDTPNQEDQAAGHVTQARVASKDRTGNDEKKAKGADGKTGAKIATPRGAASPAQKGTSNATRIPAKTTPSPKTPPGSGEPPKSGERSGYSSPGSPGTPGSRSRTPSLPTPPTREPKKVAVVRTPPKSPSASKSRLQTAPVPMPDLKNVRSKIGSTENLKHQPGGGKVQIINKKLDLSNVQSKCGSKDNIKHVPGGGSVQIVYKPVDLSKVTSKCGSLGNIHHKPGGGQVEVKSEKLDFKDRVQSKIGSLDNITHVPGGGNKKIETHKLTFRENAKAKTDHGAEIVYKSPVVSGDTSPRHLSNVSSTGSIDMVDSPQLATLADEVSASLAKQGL

[5] = target: recombinant human tau, longest isoform hTau40 (441 aa) (human) (UniProt P10636); test: SPR (BIAcore 2000), tau immobilised on CM-5 chip, antibody injected 0.11-7.5 µg/ml, 1:1 Langmuir global fit
[6] = target: recombinant mouse tau, longest isoform mTau40 (432 aa) (mouse) (UniProt P10637); test: as above

Substance | antibody concentration that significantly blocked uptake and seeding activity [1] | RD(ΔK)-YFP in the insoluble pellet fraction (detergent fractionation, Western blot) (RD(LM)-HA) | percentage of RD(LM)-YFP/mCherry dual positive cells (flow cytometry) (RD(LM)-YFP) | tau protein present in the cell medium (pull-down, Western blot) [2] | Kd [3] | koff [3] | kon [3] | Kd [4] | koff [4] | kon [4] | Kd [5] | koff [5] | kon [5] | Kd [6] | koff [6] | kon [6]
HJ9.3 (antibody) | 0.5 µg/mL | 60 % decrease | 1.31% | 10 fold | 0.099 nM | 7.51e-06 s⁻¹ | 75500 M⁻¹ s⁻¹ | 0.1 nM | 9.16e-06 s⁻¹ | 86100 M⁻¹ s⁻¹ | 0.099 nM | 7.51e-06 s⁻¹ | 75500 M⁻¹ s⁻¹ | 0.1 nM | 9.16e-06 s⁻¹ | 86100 M⁻¹ s⁻¹
HJ9.4 (antibody) | – | – | – | – | 6.9 nM | 0.00107 s⁻¹ | 153000 M⁻¹ s⁻¹ | 0.00224 nM | 5.1e-07 s⁻¹ | 228000 M⁻¹ s⁻¹ | 6.9 nM | 0.00107 s⁻¹ | 153000 M⁻¹ s⁻¹ | 0.00224 nM | 5.1e-07 s⁻¹ | 228000 M⁻¹ s⁻¹
